# Assay results published in patent publication US20210024646A1 (FUDAN UNIVERSITY, published 2021).
# Values joined by “and” are separate entries in the source; they are usually repeats but may differ in a detail not shown here. Equal entries are not always repeated.
# What was measured:
# [1] = biological target: T1, extracellular domain of human CD73 protein (CD73-ECD), C-terminus polyhistidine-tagged (human, UniProt P21589 27-547); test: cell-based or functional assay
# T1 sequence: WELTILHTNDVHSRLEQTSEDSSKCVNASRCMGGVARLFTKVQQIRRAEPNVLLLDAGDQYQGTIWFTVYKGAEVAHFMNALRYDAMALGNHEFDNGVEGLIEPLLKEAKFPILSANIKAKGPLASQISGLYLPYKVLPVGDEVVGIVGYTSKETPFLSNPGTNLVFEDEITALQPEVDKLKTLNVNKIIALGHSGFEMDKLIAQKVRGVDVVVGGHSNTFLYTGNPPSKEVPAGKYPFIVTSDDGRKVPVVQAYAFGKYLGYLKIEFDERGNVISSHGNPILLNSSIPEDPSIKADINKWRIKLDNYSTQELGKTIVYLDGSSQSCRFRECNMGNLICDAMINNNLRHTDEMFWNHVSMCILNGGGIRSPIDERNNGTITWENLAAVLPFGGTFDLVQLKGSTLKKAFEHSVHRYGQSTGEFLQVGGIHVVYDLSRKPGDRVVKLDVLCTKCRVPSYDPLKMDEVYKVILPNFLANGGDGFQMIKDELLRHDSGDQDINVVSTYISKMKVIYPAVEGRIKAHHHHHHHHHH
# [2] = biological target: T2, CD73 on the surface of human tumor cells (human, UniProt P21589 27-549); test: cell-based or functional assay
# T2 sequence (looked up): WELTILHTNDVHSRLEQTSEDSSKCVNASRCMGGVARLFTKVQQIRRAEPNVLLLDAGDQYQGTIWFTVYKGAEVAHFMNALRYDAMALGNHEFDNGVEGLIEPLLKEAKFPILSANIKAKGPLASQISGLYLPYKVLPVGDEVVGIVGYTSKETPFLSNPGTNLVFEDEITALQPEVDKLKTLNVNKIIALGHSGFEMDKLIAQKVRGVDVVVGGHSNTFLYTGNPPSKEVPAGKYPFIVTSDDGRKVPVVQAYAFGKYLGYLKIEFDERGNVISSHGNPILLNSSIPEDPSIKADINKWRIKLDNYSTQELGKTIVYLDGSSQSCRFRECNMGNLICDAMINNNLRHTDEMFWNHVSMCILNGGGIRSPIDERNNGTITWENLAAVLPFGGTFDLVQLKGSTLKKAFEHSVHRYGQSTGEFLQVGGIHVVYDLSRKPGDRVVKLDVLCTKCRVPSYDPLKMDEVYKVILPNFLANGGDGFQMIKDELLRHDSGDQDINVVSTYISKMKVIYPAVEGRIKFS
# [3] = biological target: T2, CD73 on the surface of human tumor cells; test: flow cytometry, MDA-MB-231 cells
# [4] = biological target: T1, extracellular domain of human CD73 …; test: ELISA, coated CD73-ECD
# [5] = biological target: T2, CD73 on the surface of human tumor cells; test: FACS, 5 µg/mL antibody, CD73-high Calu-1 against CD73-low MDA-MB-453 cells
# Method: 3×10⁵ tumor cells were mixed well with the antibody (final concentration was 5 μg/mL), and then incubated at 4° C. for 1 h. The cells were washed twice with PBS to remove the unbound primary antibody. Then the target cells were incubated with PE-labeled secondary antibody at 4° C. for 30 minutes. The cells were washed twice with PBS to remove the unbound secondary antibody. Finally, the cells were resuspended in 200 μL PBS and the binding rate was detected with a Fluorescence Activated Cell Sorter (FACS).
# The chimeric antibody could specifically recognize and bind tumor cells with CD73 high expression.
# [6] = biological target: T2, CD73 on the surface of human tumor cells; test: flow cytometry, NCI-H1299 cells
# [7] = biological target: T2, CD73 on the surface of human tumor cells; test: cell-based or functional assay; remark: listed apart in the source
# [8] = biological target: T2, CD73 on the surface of human tumor cells; test: FACS, NCI-H1299 cells
# Method: Alternatively, 100 μL of mAb001c, mAb002c, mAb004c diluted in a 3-fold gradient from 100 nM to 0.046 nM were used as primary antibodies and mixed with 1×10⁵ NCI-H1299 cells suspended in 100 μL RPMI-1640 serum-free medium. Then the obtained solutions were incubated at 4° C. for 1 h, the cells were washed twice with PBS to remove unbound primary antibody, and the target cells were incubated with 200 μL PE-labeled secondary antibody (2 μg/mL) at 4° C. for 30 min. The cells were washed twice with PBS to remove unbound secondary antibody. Finally, the cells were resuspended in 200 μL PBS, and the binding affinities of the test antibodies to CD73 on the cell surface were determined by a flow cytometer.
# With reference to the methods in Examples 4-8, the ELISA affinity to CD73-ECD protein, the inhibitory activity on recombinant human CD73 enzyme, the binding affinity to tumor cells, and the inhibitory activity on CD73 enzyme of tumor cells of the above prepared MEDI9447-κ as well as the antibodies mAb001c and mAb002c were detected.
# [9] = biological target: T2, CD73 on the surface of human tumor cells; test: FACS, MDA-MB-231 cells
binder,measurement,setting,value
"mAb004c (antibody, V domains shown, also called human-mouse chimeric antibody mAb004c) VH: EVQLQQSGPELVKPGASVKIPCKASGYTFTDYNMDWVKQSHGKSLEWIGDINPNNGGSVYNQKFKGKATLTVDKSSSTAYMELRSLTSEDTAVYYCGRITGTGYWSFDVWGTGTTVTVSP VL: DIQMTQSPASLSVSVGETVTITCRASENIYSNLAWYQQKQGKSPQLLVYGATNLAEGVPSRFSGSGLGTQYSLKISSLQSEDFGSYYCQHFWGIPWTFGGGTKLEIK","IC50, inhibition of AMP hydrolysis by recombinant human CD73 (CellTiter-Glo)",[1],0.039 nM
same,"IC50, inhibition of CD73 enzyme on Calu-1 cells (AMP hydrolysis)",[2],0.63 nM
same,"IC50, inhibition of CD73 enzyme on MDA-MB-231 cells (AMP hydrolysis)",[2],4.16 nM
same,"IC50, inhibition of CD73 enzyme on NCI-H1299 cells (AMP hydrolysis)",[2],0.385 nM
same,EC50,[3],2.5 nM
same,EC50,[4],0.038 nM
same,"difference in binding rate (MFI), Calu-1 against MDA-MB-453",[5],856 times
same,EC50,[6],2.2 nM
"mAb002c-VH-QG/VK-SG (antibody, V domains shown) VH: QVQLQQPGAELVKPGASVRLSCKASGYTLTSYWMHWVKKRPGQGLEWIGEINPSQGRSNYNEKFKSKATLTVDRSSSTVYMQLGSLTSEDSAVYYCARRGVSGNYFDYWGQGTTLTVSS VL: DIKMTQSPSSMYASLGERVTMTCKASQDINTYLSWFQQKPGKSPKTLIYRSNILVSGVPSRFSGSRSGQDYYLTITSLEYEDMGIYYCLQYDEFPYTFGGGTKLELK","IC50, inhibition of the catalytic function of recombinant human CD73 (CellTiter-Glo)",[1],0.038 nM and 0.06 nM
"mAb002c-VH-QG (antibody, V domains shown) VH: QVQLQQPGAELVKPGASVRLSCKASGYTLTSYWMHWVKKRPGQGLEWIGEINPSQGRSNYNEKFKSKATLTVDRSSSTVYMQLGSLTSEDSAVYYCARRGVSGNYFDYWGQGTTLTVSS VL: DIKMTQSPSSMYASLGERVTMTCKASQDINTYLSWFQQKPGKSPKTLIYRSNILVDGVPSRFSGSRSGQDYYLTITSLEYEDMGIYYCLQYDEFPYTFGGGTKLELK",EC50,[3],0.43 nM
"mAb002c-VK-SG (antibody, V domains shown) VH: QVQLQQPGAELVKPGASVRLSCKASGYTLTSYWMHWVKKRPGQGLEWIGEINPSNGRSNYNEKFKSKATLTVDRSSSTVYMQLGSLTSEDSAVYYCARRGVSGNYFDYWGQGTTLTVSS VL: DIKMTQSPSSMYASLGERVTMTCKASQDINTYLSWFQQKPGKSPKTLIYRSNILVSGVPSRFSGSRSGQDYYLTITSLEYEDMGIYYCLQYDEFPYTFGGGTKLELK",EC50,[3],0.46 nM
"mAb002c-VH-NA (antibody, V domains shown) VH: QVQLQQPGAELVKPGASVRLSCKASGYTLTSYWMHWVKKRPGQGLEWIGEINPSNARSNYNEKFKSKATLTVDRSSSTVYMQLGSLTSEDSAVYYCARRGVSGNYFDYWGQGTTLTVSS VL: DIKMTQSPSSMYASLGERVTMTCKASQDINTYLSWFQQKPGKSPKTLIYRSNILVDGVPSRFSGSRSGQDYYLTITSLEYEDMGIYYCLQYDEFPYTFGGGTKLELK",EC50,[3],0.43 nM
"mAb001c (antibody, V domains shown, also called human-mouse chimeric antibody mAb001c) VH: QVQLQQSGPELVKPGASVRISCKTSGYTFTNYYIYWVKQRPGQGLEWIGWIYPGNLNIKYNEKFKGKSTLTADKSSSTAFMQLSSLTSEDSAVYFCARDDNYAWFAYWGQGTLVTVSS VL: DIVMTQSHKFMSTSIGDRVSITCKASQDVSTAVAWYQQKPGQSPKLLIYWTNTRHTGVPDRFTGNTSGTEHTLTISSVQAEDLALYYCQQHYSTPFTFGSGTTLEIK","IC50, inhibition of AMP hydrolysis by recombinant human CD73 (CellTiter-Glo)",[1],0.025 nM
same,EC50,[3],0.7 nM
same,EC50,[4],0.024 nM
same,Calu-1 CD73 Enzyme Inhibition IC50,[7],0.506 nM
same,MDA-MB-231 CD73 Enzyme Inhibition IC50,[7],1.86 nM
same,NCI-H1299 CD73 Enzyme Inhibition IC50,[7],0.236 nM
same,EC50,[8],1.03 nM
same,EC50,[9],0.712 nM
same,"difference in binding rate (MFI), Calu-1 against MDA-MB-453",[5],250 times
same,EC50,[6],1 nM
"mAb001c-VK-SGS (antibody, V domains shown) VH: QVQLQQSGPELVKPGASVRISCKTSGYTFTNYYIYWVKQRPGQGLEWIGWIYPGNLNIKYNEKFKGKSTLTADKSSSTAFMQLSSLTSEDSAVYFCARDDNYAWFAYWGQGTLVTVSS VL: DIVMTQSHKFMSTSIGDRVSITCKASQDVSTAVAWYQQKPGQSPKLLIYWTNTRHTGVPDRFTGSGSGTEHTLTISSVQAEDLALYYCQQHYSTPFTFGSGTTLEIK","IC50, inhibition of the catalytic function of recombinant human CD73 (CellTiter-Glo)",[1],0.02 nM
same,EC50,[3],1.39 nM
"Hu001c-22 (antibody, V domains shown, Humanized) VH: QVQLVQSGAEVKKPGASVKVSCKASGYTFTNYYIYWVKQRPGQRLEWIGWIYPGNLNIKYNEKFKGRVTITADKSASTAYMELSSLRSEDTAVYYCARDDNYAWFAYWGQGTLVTVSS VL: DIQMTQSPSSLSASVGDRVTITCKASQDVSTAVAWYQQKPGKAPKLLIYWTNTRHTGVPSRFSGSGSGTDHTLTISSLQPEDFATYYCQQHYSTPFTFGQGTKLEIK",binding result,[3],binds
same,binding result,[4],binds
"Hu001c-23 (antibody, V domains shown, Humanized) VH: QVQLVQSGAEVKKPGASVKVSCKASGYTFTNYYIYWVKQRPGQGLEWIGWIYPGNLNIKYNEKFKGRVTITADKSASTAYMELSSLRSEDTAVYYCARDDNYAWFAYWGQGTLVTVSS VL: DIQMTQSPSSLSASVGDRVTITCKASQDVSTAVAWYQQKPGKAPKLLIYWTNTRHTGVPSRFSGSGSGTDHTLTISSLQPEDFATYYCQQHYSTPFTFGQGTKLEIK",binding result,[3],binds
same,binding result,[4],binds
"Hu001c-24 (antibody, V domains shown, Humanized) VH: QVQLVQSGAEVKKPGASVKVSCKTSGYTFTNYYIYWVKQRPGQGLEWIGWIYPGNLNIKYNEKFKGRVTITADKSASTAYMELSSLRSEDTAVYYCARDDNYAWFAYWGQGTLVTVSS VL: DIQMTQSPSSLSASVGDRVTITCKASQDVSTAVAWYQQKPGKAPKLLIYWTNTRHTGVPSRFSGSGSGTDHTLTISSLQPEDFATYYCQQHYSTPFTFGQGTKLEIK",binding result,[3],binds
same,binding result,[4],binds
"Hu001c-25 (antibody, V domains shown, Humanized) VH: QVQLVQSGAEVKKPGASVKVSCKASGYTFTNYYIYWVRQAPGQRLEWIGWIYPGNLNIKYNEKFKGRVTITADKSASTAYMELSSLRSEDTAVYYCARDDNYAWFAYWGQGTLVTVSS VL: DIQMTQSPSSLSASVGDRVTITCKASQDVSTAVAWYQQKPGKSPKLLIYWTNTRHTGVPSRFSGSGSGTDHTLTISSLQPEDFATYYCQQHYSTPFTFGQGTKLEIK",binding result,[3],binds
same,binding result,[4],binds
"MEDI9447-κ (antibody, V domains shown) VH: EVQLLESGGGLVQPGGSLRLSCAASGFTFSSYAYSWVRQAPGKGLEWVSAISGSGGRTYYADSVKGRFTISRDNSKNTLYLQMNSLRAEDTAVYYCARLGYGRVDEWGRGTLVTVSS VL: QSVLTQPPSASGTPGQRVTISCSGSLSNIGRNPVNWYQQLPGTAPKLLIYLDNLRLSGVPDRFSGSKSGTSASLAISGLQSEDEADYYCATWDDSHPGWTFGGGTKLTVL",Calu-1 CD73 Enzyme Inhibition IC50,[7],0.527 nM
same,MDA-MB-231 CD73 Enzyme Inhibition IC50,[7],1.1 nM
same,NCI-H1299 CD73 Enzyme Inhibition IC50,[7],0.388 nM
same,EC50,[8],1.27 nM
same,EC50,[9],0.752 nM
